Where two headings read alike, the source gives them in different places.
Key:
[1] = molecular target: T1, EDIII-DV4 (E protein domain III of dengue virus serotype DV-4) (dengue virus serotype DV-4, UniProt P09866 572-679)
T1 construct: also called DENV-4

[2] = molecular target: T2, EDIII-DV1 (E protein domain III of dengue virus serotype DV-1) (dengue virus serotype DV-1, UniProt P17763 573-680)
T2 construct: also called DENV-1; EDIII of DV-1
T2 chain: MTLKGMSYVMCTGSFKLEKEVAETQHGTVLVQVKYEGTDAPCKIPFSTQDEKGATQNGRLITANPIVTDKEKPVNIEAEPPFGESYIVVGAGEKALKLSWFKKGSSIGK

[3] = molecular target: T3, EDIII-DV3 (E protein domain III of dengue virus serotype DV-3) (dengue virus serotype DV-3, UniProt P27915 571-678)
T3 construct: also called DENV-3; EDIII of DV-3

[4] = molecular target: T1, EDIII-DV4 (E protein domain III of …); remark: listed apart in the source
[5] = molecular target: T1, EDIII-DV4 (E protein domain III of …); remark: listed apart in the source
[6] = molecular target: T3, EDIII-DV3 (E protein domain III of …); remark: listed apart in the source
[7] = molecular target: T1, EDIII-DV4 (E protein domain III of …); remark: listed apart in the source
[8] = molecular target: T4, EDIII-DV2 (E protein domain III of dengue virus serotype DV-2) (dengue virus serotype DV-2, UniProt P14337 573-677)
T4 construct: also called DENV-2; EDIII of DV-2
T4 sequence (P14337 573-677, tags left off): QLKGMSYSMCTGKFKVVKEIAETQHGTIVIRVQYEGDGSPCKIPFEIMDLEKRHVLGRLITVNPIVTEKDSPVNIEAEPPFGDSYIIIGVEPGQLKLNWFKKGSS

T3 sequence (P27915 571-678, tags left off): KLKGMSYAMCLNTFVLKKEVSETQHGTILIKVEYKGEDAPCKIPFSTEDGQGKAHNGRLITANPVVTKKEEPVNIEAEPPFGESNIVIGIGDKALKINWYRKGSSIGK

B1: antibody B48 (antibody, V domains shown)
VH: QVQLVQSGAEVKKPGASVKVSCKAGFNIKDTYMSWVRQAPEQGLEWMGRIDPENGDTKYDPKLQGRVTMTADTSTNTAYMELRSLRSDDTAVYYCARGWEGFAYWGQGTLVTVSS
VL: DIVMTQSPASLAVSLGERATISCRASENVDKYGNSFMHWYQQKPGQPPKLLIYRASELQWGVPDRFSGSGSGTDFTLTISSLQAEDVAVYYCQRSNEVPWTFGQGTKLEIK
notes: also called mAb B48
B1 showed a Kd [1] of 0.0193 µM, a Kd [2] of 0.000123 µM and a Kd [3] of 0.008 µM. It also gave a Kd [4] of 0.0276 µM.

B2: B48+InsE6 (antibody, V domains shown)
VH: VQLVEQSGAEVKKPGASVKVSCKAGFNIKDTYMSWVRQAPEQGLEWMGRIDPENGDTKYDPKLQGRVTMTADTSTNTAYMELRSLRSDDTAVYYCARGWEGFAYWGQGTLVTVSS
VL: DIVMTQSPASLAVSLGERATISCRASENVDKYGNSFMHWYQQKPGQPPKLLIYRASELQWGVPDRFSGSGSGTDFTLTISSLQAEDVAVYYCQRSNEVPWTFGQGTKLEIK
Work on B2 yielded a Kd [1] of 0.0269 µM.

B3: antibody A48 (antibody, V domains shown)
VH: QVQLVQSGAEVKKPGASVKVSCKASGFNIKDTYMSWVRQAPEQGLEWMGRIDPENGDTKYDPKLQGRVTMTADTSTNTAYMELRSLRSDDTAVYYCARGWEGFAYWGQGTLVTVSS
VL: DIVMTQSPASLAVSLGERATISCRASENVDKYGNSFMHWYQQKPGQPPKLLIYRASELQWGVPDRFSGSGSGTDFTLTISSLQAEDVAVYYCQRSNEVPWTFGQGTKLEIK
B3 was tested, and the Kd [2] was < 0.0001 µM and the Kd [3] was 0.0058 µM.

B4: antibody D148 (antibody, V domains shown)
VH: QVQLVQSGAEVKKPGASVKVSCKASYFNIKDVYMSWVRQAPEQGLEWMGRIDPENGDTKYDPKLQGRVTMTADTSTNTAYMELRSLRSDDTAVYYCARGWEGFAYWGQGTLVTVSS
VL: DIVMTQSPASLAVSLGERATISCRASENVDKYGNSFMHWYQQKPGQPPKLLIYRASELQWGVPDRFSGSGSGTDFTLTISSLQAEDVAVYYCQRSNEVPWTFGQGTKLEIK
In the case of B4, the Kd [5] is reported as 0.018 µM.

B5: antibody D128 (antibody, V domains shown)
VH: QVQLVQSGAEVKKPGASVKVSCKASAWNIKDVYMSWVRQAPEQGLEWMGRIDPENGDTKYDPKLQGRVTMTADTSTNTAYMELRSLRSDDTAVYYCARGWEGFAYWGQGTLVTVSS
VL: DIVMTQSPASLAVSLGERATISCRASENVDKYGNSFMHWYQQKPGQPPKLLIYRASELQWGVPDRFSGSGSGTDFTLTISSLQAEDVAVYYCQRSNEVPWTFGQGTKLEIK
B5 was tested, and the Kd [5] was 0.0208 µM.

B6: D178 (antibody, V domains shown)
VH: QVQLVQSGAEVKKPGASVKVSCKAGFNIKDVYMSWVRQAPEQGLEWMGRIDPENGDTKYDPKLQGRVTMTADTSTNTAYMELRSLRSDDTAVYYCVRGWEGFAYWGQGTLVTVSS
VL: DIVMTQSPASLAVSLGERATISCRASENVDKYGNSFMHWYQQKPGQPPKLLIYRASELQWGVPDRFSGSGSGTDFTLTISSLQAEDVAVYYCQRSNEVPWTFGQGTKLEIK
B6 gave a Kd [6] of 0.00105 µM and a Kd [7] of 0.00467 µM.

B7: A48+V2L (antibody, V domains shown)
VH: QLQLVQSGAEVKKPGASVKVSCKASGFNIKDVYMSWVRQAPEQGLEWMGRIDPENGDTKYDPKLQGRVTMTADTSTNTAYMELRSLRSDDTAVYYCARGWEGFAYWGQGTLVTVSS
VL: DIVMTQSPASLAVSLGERATISCRASENVDKYGNSFMHWYQQKPGQPPKLLIYRASELQWGVPDRFSGSGSGTDFTLTISSLQAEDVAVYYCQRSNEVPWTFGQGTKLEIK
B7 gave a Kd [1] of 0.0213 µM.

B8: B48+V2L (antibody, V domains shown)
VH: QLQLVQSGAEVKKPGASVKVSCKAGFNIKDTYMSWVRQAPEQGLEWMGRIDPENGDTKYDPKLQGRVTMTADTSTNTAYMELRSLRSDDTAVYYCARGWEGFAYWGQGTLVTVSS
VL: DIVMTQSPASLAVSLGERATISCRASENVDKYGNSFMHWYQQKPGQPPKLLIYRASELQWGVPDRFSGSGSGTDFTLTISSLQAEDVAVYYCQRSNEVPWTFGQGTKLEIK
B8 gave a Kd [1] of 0.0236 µM.

B9: A68 (A48 + A98V) (antibody, V domains shown)
VH: QVQLVQSGAEVKKPGASVKVSCKASGFNIKDTYMSWVRQAPEQGLEWMGRIDPENGDTKYDPKLQGRVTMTADTSTNTAYMELRSLRSDDTAVYYCVRGWEGFAYWGQGTLVTVSS
VL: DIVMTQSPASLAVSLGERATISCRASENVDKYGNSFMHWYQQKPGQPPKLLIYRASELQWGVPDRFSGSGSGTDFTLTISSLQAEDVAVYYCQRSNEVPWTFGQGTKLEIK
B9 was tested, and the Kd [8] was < 0.0001 µM, the Kd [3] was 0.003 µM and the Kd [4] was 0.0131 µM.

B10: A48+InsE6 (antibody, V domains shown)
VH: VQLVEQSGAEVKKPGASVKVSCKASGFNIKDVYMSWVRQAPEQGLEWMGRIDPENGDTKYDPKLQGRVTMTADTSTNTAYMELRSLRSDDTAVYYCARGWEGFAYWGQGTLVTVSS
VL: DIVMTQSPASLAVSLGERATISCRASENVDKYGNSFMHWYQQKPGQPPKLLIYRASELQWGVPDRFSGSGSGTDFTLTISSLQAEDVAVYYCQRSNEVPWTFGQGTKLEIK
Work on B10 yielded a Kd [1] of 0.0195 µM.

B11: antibody D108 (antibody, V domains shown)
VH: QVQLVQSGAEVKKPGASVKVSCKASYWNIKDVYMSWVRQAPEQGLEWMGRIDPENGDTKYDPKLQGRVTMTADTSTNTAYMELRSLRSDDTAVYYCARGWEGFAYWGQGTLVTVSS
VL: DIVMTQSPASLAVSLGERATISCRASENVDKYGNSFMHWYQQKPGQPPKLLIYRASELQWGVPDRFSGSGSGTDFTLTISSLQAEDVAVYYCQRSNEVPWTFGQGTKLEIK
For B11, the Kd [5] was 0.0183 µM.

B12: C128 (antibody, V domains shown)
VH: QVQLVQSGAEVKKPGASVKVSCKASGFNIKDVYMSWVRQAPEQGLEWMGRIDPENGDTKYDPKLQGRVTMTADTSTNTAYMELRSLRSDDTAVYYCSRGWEGFAYWGQGTLVTVSS
VL: DIVMTQSPASLAVSLGERATISCRASENVDKYGNSFMHWYQQKPGQPPKLLIYRASELQWGVPDRFSGSGSGTDFTLTISSLQAEDVAVYYCQRSNEVPWTFGQGTKLEIK
For B12, the Kd [6] was 0.00063 µM and the Kd [7] was 0.0187 µM.

B13: D168 (antibody, V domains shown)
VH: QVQLVQSGAEVKKPGASVKVSCKASGYNIKDVYMSWVRQAPEQGLEWMGRIDPENGDTKYDPKLQGRVTMTADTSTNTAYMELRSLRSDDTAVYYCARGWEGFAYWGQGTLVTVSS
VL: DIVMTQSPASLAVSLGERATISCRASENVDKYGNSFMHWYQQKPGQPPKLLIYRASELQWGVPDRFSGSGSGTDFTLTISSLQAEDVAVYYCQRSNEVPWTFGQGTKLEIK
Binder B13 has a Kd [5] of 0.324 µM.

B14: C41 (antibody, V domains shown)
VH: VKLLEQSGAELVKPGASVRLSCTASGFNIKDVYMSWVKQRPEQGLEWIGRIDPENGDTKYDPKFQGKATITADTSSNTAYLHLSSLTSGDTAVYYCSRGWEGFAYWGQGTLVTVSA
VL: ELVMTQTPASLAVSLGQRATISCRASENVDKYGNSFMHWYQQKAGQPPKLLIYRASELQWGIPARFSGSGSRTDFTLTINPVEADDVATYFCQRSNEVPWTFGGGTKLEIK
B14 was tested, and the Kd [1] was 0.00256 µM.

— patent US20240425569A1 (VISTERRA, published 2024)
